We go through one protein from US20260146069A1 (PAPYRUS THERAPEUTICS, published 2026).

This data set concerns the molecule itself. The experiment in a line: Western blot (8% SDS-PAGE, goat anti-human OPCML) of Ni-NTA purified protein; self-association. As to the method:
Samples were separated on an 8% SDS-PAGE gel, transferred to a nitrocellulose or polyvinylidene fluoride (PVDF) membrane (Millipore Corporation), blocked, and incubated with polyclonal goat anti-human OBCAM (OPCML; R&D Systems) as a primary antibody, diluted 1:1000, at 4° C. overnight. After washing, the membrane was incubated with HRP-labeled anti-goat as the secondary antibody, diluted 1:5000. After final washings, proteins were detected using Immobilon Western Chemiluminescent HRP substrate system (Millipore) and GE Healthcare Amersham “Hyperfilm” ECL film with a Kodak SRX2000 (Rochester, NY, USA) developer machine.

B1: rOPCML-Fc protein (PYTX-004 construct) (Fc fusion)
chain: ATFPKAMDNVTVRQGESATLRCTIDDRVTRVAWLNRSTILYAGNDKWSIDPRVIILVNTPTQYSIMIQNVDVYDEGPYTCSVQTDNHPKTSRVHLIVQVPPQIMNISSDITVNEGSSVTLLCLAIGRPEPTVTWRHLSVKEGQGFVSEDEYLEISDIKRDQSGEYECSALNDVAAPDVRKVKITVNYPPYISKAKNTGVSVGQKGILSCEASAVPMAEFQWFKEETRLATGLDGMRIENKGRMSTLTFFNVSEKDYGNYTCVATNKLGNTNASITLYGPGGGGLEVLFQGPGGSTKGPSVFLFPPKPKDTLMISRTPEVTCVVVDVSHEDPEVKFNWYVDGVEVHNAKTKPREEQYNSTYRVVSVLTVLHQDWLNGKEYKCKVSNKALPAPIEKTISKAKGQPREPQVYTLPPSRDELTKNQVSLTCLVKGFYPSDIAVEWESNGQPENNYKTTPPVLDSDGSFFLYSKLTVDKSRWQQGNVFSCSVMHEALHNHYTQKSLSLSPGKRTGHHHHHH
notes: Expressed in HEK-293 clone 18G9 and purified on Ni-NTA; After purification it reports a 160 kDa form and an 80 kDa monomer; also called rOPCML-Fc PYTX-004; OPCML-Fc PYTX-004
Take B1: the binding result was “binds”.
